Experimental data as given in IntAct's records for PubMed 11782428.

B1: Tyrosine-protein kinase Lyn (Homo sapiens), P07948 (parent)
chain: MGCIKSKGKDSLSDDGVDLKTQPVRNTERTIYVRDPTSNKQQRPVPESQLLPGQRFQTKDPEEQGDIVVALYPYDGIHPDDLSFKKGEKMKVLEEHGEWWKAKSLLTKKEGFIPSNYVAKLNTLETEEWFFKDITRKDAERQLLAPGNSAGAFLIRESETLKGSFSLSVRDFDPVHGDVIKHYKIRSLDNGGYYISPRITFPCISDMIKHYQKQADGLCRRLEKACISPKPQKPWDKDAWEIPRESIKLVKRLGAGQFGEVWMGYYNNSTKVAVKTLKPGTMSVQAFLEEANLMKTLQHDKLVRLYAVVTREEPIYIITEYMAKGSLLDFLKSDEGGKVLLPKLIDFSAQIAEGMAYIERKNYIHRDLRAANVLVSESLMCKIADFGLARVIEDNEYTAREGAKFPIKWTAPEAINFGCFTIKSDVWSFGILLYEIVTYGKIPYPGRTNADVMTALSQGYRMPRVENCPDELYDIMKMCWKEKAEERPTFDYLQSVLDDFYTATEGQYQQQP
partner: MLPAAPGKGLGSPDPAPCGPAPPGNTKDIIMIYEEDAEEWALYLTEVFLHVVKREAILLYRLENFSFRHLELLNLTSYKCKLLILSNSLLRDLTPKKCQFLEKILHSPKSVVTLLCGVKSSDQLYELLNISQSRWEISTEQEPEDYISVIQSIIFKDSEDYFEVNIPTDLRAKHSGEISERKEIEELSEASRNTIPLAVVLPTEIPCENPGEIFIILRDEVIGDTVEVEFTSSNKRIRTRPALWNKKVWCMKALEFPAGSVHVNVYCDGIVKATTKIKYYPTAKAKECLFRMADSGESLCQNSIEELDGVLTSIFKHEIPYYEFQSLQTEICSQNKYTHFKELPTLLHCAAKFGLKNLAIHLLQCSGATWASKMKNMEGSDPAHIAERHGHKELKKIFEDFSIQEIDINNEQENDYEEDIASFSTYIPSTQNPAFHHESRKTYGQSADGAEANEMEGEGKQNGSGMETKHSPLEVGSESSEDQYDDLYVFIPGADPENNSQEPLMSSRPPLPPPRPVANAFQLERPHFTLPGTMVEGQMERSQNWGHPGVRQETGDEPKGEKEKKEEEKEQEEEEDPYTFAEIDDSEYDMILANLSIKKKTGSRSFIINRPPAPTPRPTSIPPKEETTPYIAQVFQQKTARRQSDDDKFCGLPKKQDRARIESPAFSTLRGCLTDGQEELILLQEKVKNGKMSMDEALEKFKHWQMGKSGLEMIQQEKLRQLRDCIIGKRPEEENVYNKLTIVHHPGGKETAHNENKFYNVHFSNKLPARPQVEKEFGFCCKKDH

Variants of: B1
Settings: with bank1_human BANK1, Q8NDB2

effect of a mutation on the interaction | Variant
with no effect | P114L
with no effect | R156D;S158F
decreasing interaction strength | K275L
with no effect | Y508F
